Experiment [1] deals with human Claudin-6 (CLDN6) (human) (UniProt P56747). Kind of experiment: FACS, limiting dilution, ARK2 cells. On the technique in general: Flow cytometry measures light scatter and fluorescence of single cells or particles in a stream.
The target is the same in experiment [2]. Kind of experiment: FACS, limiting dilution, OV90 cells.
Experiment [3] has the same target. Kind of experiment: FACS, limiting dilution, UMUC4 cells.

B1: AB S4 (antibody, V domains shown)
VH: EVQLLESGGGLVQPGGSMRLSCAASGFTFSNYWMNWVRQAPGKGLEWIAQIRLKSDNYATHYTDSVKGRFTISRDDSKSTVYLQMNSLRAEDTGTYYCNDGPPSGSWGQGTLLTVSS
VL: DIQMTQSPSSLSASVGDRVTITCRISENIYSYLAWYQQKPGKAPKLLVYNAKILVEGVPSRFSGSGSGTDFTLTISSLQPEDFGTYYCQHHYTVPWTFGQGTKLEIK
As for B1, in experiment [1], the FACS signal at 0.32 nM was found to be 354, the FACS signal at 1.6 nM was 438, the FACS signal at 8 nM was found to be 1720 and the FACS signal at 40 nM came out at 6350. Further, in experiment [1], the FACS signal at 200 nM is 31500 and the FACS signal at 1000 nM is 62500. In experiment [2], this molecule gave an FACS signal at 0.32 nM of 432, an FACS signal at 1.6 nM of 515, an FACS signal at 8 nM of 1360 and an FACS signal at 40 nM of 4590. In addition, in experiment [2], the FACS signal at 200 nM stood at 15900 and the FACS signal at 1000 nM was 42000. In experiment [3], this molecule came in with an FACS signal at 0.32 nM of 518, an FACS signal at 1.6 nM of 651, an FACS signal at 8 nM of 1300 and an FACS signal at 40 nM of 4120. In addition, in experiment [3], the FACS signal at 200 nM amounted to 13500 and the FACS signal at 1000 nM amounted to 35000.

B2: AB S6 (antibody, V domains shown)
VH: EVQLLESGGGLVQPGGSMRLSCAASGFTFSNYWMNWVRQAPGKGLEWLAQIRLKSDNYVTHYADSVKGRFTISRDDSKRTVYLQMNSLRAEDTGTYYCNDGPPSGSWGQGTLLTVSS
VL: DIQMTQSPSSLSASVGDRVTITCRISENIYSYLAWYQQKPGKAPKLLVYNAKILVEGVPSRFSGSGSGTDFTLTISSLQPEDFGTYYCQHHYTVPWTFGQGTKLEIK
In experiment [1], B2 displayed an FACS signal at 0.32 nM of 448, an FACS signal at 1.6 nM of 765, an FACS signal at 8 nM of 3800 and an FACS signal at 40 nM of 14600. This molecule had an FACS signal at 200 nM in experiment [1] of 54100. In experiment [2], this molecule had an FACS signal at 0.32 nM of 467, an FACS signal at 1.6 nM of 791, an FACS signal at 8 nM of 2950 and an FACS signal at 40 nM of 12600. Besides, in experiment [2], the FACS signal at 200 nM stood at 38600 and the FACS signal at 1000 nM was 76600. Also, in experiment [3], the FACS signal at 0.32 nM stood at 1320, the FACS signal at 1.6 nM is 1690, the FACS signal at 8 nM stood at 3300 and the FACS signal at 40 nM came out at 4120. Further, in experiment [3], the FACS signal at 200 nM was determined as 12500 and the FACS signal at 1000 nM was found to be 42300.

B3: AB S5 (antibody, V domains shown)
VH: EVQLLESGGGLVQPGGSMRLSCAASGFTFSNYWMNWVRQAPGKGLEWLAQIRLKSDNYATHYTDSVKGRFTISRDDSKRTVYLQMNSLRAEDTGIYYCSDGPPSGSWGQGTLLTVSS
VL: DIQMTQSPSSLSASVGDRVTITCRISENIYSYLAWYQQKPGKAPKLLVYNAKILVEGVPSRFSGSGSGTDFTLTISSLQPEDFGTYYCQHHYTVPWTFGQGTKLEIK
Consider B3, for which, in experiment [1], the FACS signal at 0.32 nM came to 372, the FACS signal at 1.6 nM stood at 997, the FACS signal at 8 nM was 5560 and the FACS signal at 40 nM worked out at 25600. Moreover, the FACS signal at 200 nM in experiment [1] is 78800. Moreover, in experiment [2], the FACS signal at 0.32 nM stood at 558, the FACS signal at 1.6 nM came to 1040, the FACS signal at 8 nM is 5220 and the FACS signal at 40 nM came to 22500. The molecule also gave an FACS signal at 200 nM in experiment [2] of 73300. In experiment [3], this molecule gave an FACS signal at 0.32 nM of 481, an FACS signal at 1.6 nM of 885, an FACS signal at 8 nM of 2340 and an FACS signal at 40 nM of 7080. In experiment [3], this molecule registered an FACS signal at 200 nM of 19000 and an FACS signal at 1000 nM of 47200.

For the origin of these results see US20230049752A1 (University of California, published 2023).
